Measured values: article PMC5727262, “Molecular mechanism of K65 acetylation-induced attenuation of Ubc9 and the NDSM interaction” (Scientific Reports, 2017)

B1: GST-CBP1000-1080: GST fusion of the sumoylation motif region derived from CBP, sumoylation substrate (protein)
chain: ETQAEDTEPDPGESKGEPRSEMMEEDLQGASQVKEETDIAEQKSEPMEVDEKKPEVKVEVKEEEESSSNGTASQSTSPSQP
modifications: left off: GST, end not stated, kept
notes: GST fusion of the sumoylation motif region derived from CBP, sumoylation substrate
B2: GST-RanGAP1_481-587: GST fusion of the sumoylation motif region derived from RanGAP1, sumoylation substrate (protein)
chain: KDEATVRMAVQDAVDALMQKAFNSSSFNSNTFLTRLLVHMGLLKSEDKVKAIANLYGPLMALNHMVQQDYFPKALAPLLLAFVTKPNSALESCSFARHSLLQTLYKV
modifications: left off: GST, end not stated, kept
notes: GST fusion of the sumoylation motif region derived from RanGAP1, sumoylation substrate
B3: GST-Elk1_200-261: GST fusion of the sumoylation motif region derived from Elk1, sumoylation substrate (protein)
chain: SPSPLEACLEAEEAGLPLQVILTPPEAPNLKSEELNVEPGLGRALPPEVKVEGPKEELEVAG
modifications: also: GST fusion partner not in chain
notes: GST fusion of the sumoylation motif region derived from Elk1, sumoylation substrate

Molecular target: T1, Ubc9 (WT) (Homo sapiens, UniProt P63279)
T1 construct: made in house; host or cells: E. coli (stated as BL21 (DE3) for the acetylated variant)
Assay: Multiple-turnover in vitro sumoylation kinetics with WT Ubc9
Assay type: biochemical
Details: Michaelis-Menten, SUMO-1 conjugation, 100 nM WT Ubc9, 10 μM SUMO-1, 150 nM E1, pH 7.5, SDS-PAGE/SYPRO-RUBY, triplicate
Protocol: (§1) Although the decreased Ubc9 binding to the NDSM substrates on K65 acetylation could explain the reduced levels of NDSM substrate sumoylation, we could not entirely exclude the possibility that K65 acetylation could also affect Ubc9 catalytic activity. To test this possibility, an enzyme kinetics study was performed using multiple-turnover in vitro sumoylation assays between WT or Ac-Ubc9K65 and GST fusion of SM derived from RanGAP1 (Fig. 3A and B), Elk1 (Fig. 3C and D), and CBP (Fig. 3E and F). […] In line with the ITC results, K65 acetylation increased the km values by 1.5–1.7 fold of the NDSM peptides, but not the RanGAP1 SM.
(§2) Figure 3 Effect of K65 acetylation on Ubc9 catalysis. (A) Summary of Michaelis–Menten kinetics applied to SUMO conjugation rates for GST-RanGAP1_481-587 (B and C), GST-Elk1_200-261 (D and E) and GST-CBP1000-1080 (F and G). Experiments performed in triplicate. TEXT PRINTED IN THE PICTURE: (A) RanGAP1: Km (μM): 24.8 ± 1.7 (Ubc9: WT); kcat (min^-1): 4.3 ± 0.1 (Ubc9: WT); Km (μM): 21.0 ± 4.4 (Ubc9: K65-Ac); kcat (min^-1): 4.1 ± 0.3 (Ubc9: K65-Ac) | (A) Elk1: Km (μM): 75.2 ± 5.9 (Ubc9: WT); kcat (min^-1): 3.7 ± 0.5 (Ubc9: WT); Km (μM): 110.7 ± 7.8 (Ubc9: K65-Ac); kcat (min^-1): 4.0 ± 0.2 (Ubc9: K65-Ac) | (A) CBP: Km (μM): 63.8 ± 7.9 (Ubc9: WT); kcat (min^-1): 3.8 ± 0.4 (Ubc9: WT); Km (μM): 111.0 ± 11.6 (Ubc9: K65-Ac); kcat (min^-1): 4.5 ± 0.4 (Ubc9: K65-Ac) | (A) Calpain2: Km (μM): N.D. (Ubc9: WT); kcat (min^-1): N.D. (Ubc9: WT); Km (μM): N.D. (Ubc9: K65-Ac); kcat (min^-1): N.D. (Ubc9: K65-Ac)
(§3) The kinetic analysis[27] was performed in a 40 μl reaction mixture containing 10 μM SUMO-1, 150 nM E1, 100 nM WT or Ac-Ubc9K65, and known quantities of sumoylation substrate dissolved in a buffer containing 20 mM HEPES (pH 7.5), 100 mM NaCl, 5 mM MgCl2, and 2 mM ATP. The samples were subject to SDS-PAGE and visualized by SYPRO-RUBY staining using the UVP Gel-Doc-It system to quantify the sumoylated and non-sumoylated protein bands. Data from triplicate experiments were plotted as a graph of reaction velocity against concentration of the substrate to obtain the Michaelis–Menten constant (km) and the turnover number (kcat).

T1 sequence (P63279 whole entry): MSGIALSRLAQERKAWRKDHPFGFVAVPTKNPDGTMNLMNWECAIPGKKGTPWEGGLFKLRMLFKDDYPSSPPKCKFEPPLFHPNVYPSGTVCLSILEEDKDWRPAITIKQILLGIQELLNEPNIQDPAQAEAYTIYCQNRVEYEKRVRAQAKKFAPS

Molecule | Km [µM]
B1 | 63.8 ± 7.9
B2 | 24.8 ± 1.7
B3 | 75.2 ± 5.9

Same assay, conditions: Michaelis-Menten, SUMO-1 conjugation, 100 nM WT Ubc9, 10 μM SUMO-1, 150 nM E1, pH 7.5, triplicate

Molecule | kcat [s⁻¹]
B1 | 0.0633 ± 0.0067
B2 | 0.0717 ± 0.0017
B3 | 0.0617 ± 0.0083

Molecular target: T2, Ac-Ubc9K65 (Homo sapiens, UniProt P63279)
T2 construct: made in house; host or cells: E. coli BL21 (DE3) with pAcKRS-3 and pCDF PylT-1-Ubc9 (amber codon at K65), fed acetyl-lysine
Assay: Multiple-turnover in vitro sumoylation kinetics with Ac-Ubc9K65
Assay type: biochemical
Details: Michaelis-Menten, SUMO-1 conjugation, 100 nM Ac-Ubc9K65, 10 μM SUMO-1, 150 nM E1, pH 7.5, SDS-PAGE/SYPRO-RUBY, triplicate
Protocol: as §1, §2, §3

T2 sequence (P63279 2-158): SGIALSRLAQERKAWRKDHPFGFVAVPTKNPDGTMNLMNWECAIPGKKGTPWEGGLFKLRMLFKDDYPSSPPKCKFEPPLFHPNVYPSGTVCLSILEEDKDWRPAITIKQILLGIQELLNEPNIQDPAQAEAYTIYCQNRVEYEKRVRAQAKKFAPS

Molecule | Km [µM]
B1 | 111 ± 11.6
B2 | 21 ± 4.4
B3 | 111 ± 7.8

Same assay, conditions: Michaelis-Menten, SUMO-1 conjugation, 100 nM Ac-Ubc9K65, 10 μM SUMO-1, 150 nM E1, pH 7.5, triplicate

Molecule | kcat [s⁻¹]
B1 | 0.075 ± 0.0067
B2 | 0.0683 ± 0.005
B3 | 0.0667 ± 0.0033
